{
  "source": "patent US20260069676A1",
  "about": "(University of California, published 2026)",
  "target": "T1, MHC I (H2Kb) on dendritic cells (;mouse, UniProt P01887 21-119; P01901 22-369)",
  "T1 construct": "whole, on cells; also called MHC I molecules of DC2.4 cells",
  "T1 sequence (MHC heavy)": "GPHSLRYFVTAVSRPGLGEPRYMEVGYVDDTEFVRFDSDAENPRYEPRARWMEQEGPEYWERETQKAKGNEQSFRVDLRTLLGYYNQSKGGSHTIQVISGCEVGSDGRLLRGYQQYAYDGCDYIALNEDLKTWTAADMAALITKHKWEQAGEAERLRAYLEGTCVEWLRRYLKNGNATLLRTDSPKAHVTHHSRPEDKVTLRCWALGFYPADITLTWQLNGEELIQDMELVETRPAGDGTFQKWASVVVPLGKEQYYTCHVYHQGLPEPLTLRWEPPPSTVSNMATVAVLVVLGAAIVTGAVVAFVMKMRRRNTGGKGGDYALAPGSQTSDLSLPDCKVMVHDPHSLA",
  "T1 sequence (b2m)": "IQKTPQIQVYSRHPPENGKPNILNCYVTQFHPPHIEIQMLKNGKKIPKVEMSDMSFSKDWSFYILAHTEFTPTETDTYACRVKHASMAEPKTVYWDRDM",
  "assay": "competition with pre-loaded SIINFEKL on dendritic cells, flow cytometry with SIINFEKL/H2Kb-specific antibody",
  "data": [
    {"binder": "LTDEMIAQY (Synthetic peptide (Anaspec), derived from the SARS-CoV-2 spike protein; also called LTD peptide (MHC I); LTD-MHC I peptide)", "note": "[LTDEMIAQY peptide (MHC I peptide, SARS-CoV-2 spike T cell epitope)]", "values": [
      {"measurement": "binding result", "result": "binds"}
    ]}
  ]
}
